The results in this text go back to publication PMC2714943 (Biochemistry, 2009).

Data set [1] has as its target (+)-δ-cadinene synthase (DCS, isozyme XC1) (Gossypium arboreum, UniProt Q39761).
The test system of data set [2] is CC(C)=CCC/C(C)=C/CC/C(C)=C/CO[P@@](=O)(O)OP(=O)(O)O. In words: purified protein. The conditions noted are these: Mg2+. The data set is classed as biochemical, Gossypium arboreum.

Chain of (+)-δ-cadinene synthase (DCS, isozyme XC1) (Q39761 whole entry): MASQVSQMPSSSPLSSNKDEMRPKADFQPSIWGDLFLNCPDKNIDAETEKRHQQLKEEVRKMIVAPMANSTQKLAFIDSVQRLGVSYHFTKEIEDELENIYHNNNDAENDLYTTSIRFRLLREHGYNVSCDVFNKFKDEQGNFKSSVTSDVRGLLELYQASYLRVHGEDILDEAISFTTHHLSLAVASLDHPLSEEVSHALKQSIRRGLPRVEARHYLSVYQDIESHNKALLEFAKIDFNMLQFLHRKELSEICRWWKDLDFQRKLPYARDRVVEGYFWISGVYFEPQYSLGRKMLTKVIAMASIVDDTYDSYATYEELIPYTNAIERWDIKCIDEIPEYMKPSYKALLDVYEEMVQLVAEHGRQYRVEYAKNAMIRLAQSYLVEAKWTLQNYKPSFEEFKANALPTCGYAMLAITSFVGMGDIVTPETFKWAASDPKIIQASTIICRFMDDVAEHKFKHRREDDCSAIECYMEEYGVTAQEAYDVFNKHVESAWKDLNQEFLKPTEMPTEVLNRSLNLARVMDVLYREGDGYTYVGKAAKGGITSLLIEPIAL

Take `CC(C)=CCC/C(C)=C/CC/C(C)=C/CO[P@@](=O)(O)OP(=O)(O)O` [FPP]: in data set [1], the Km (as a rule, the concentration of substrate that gives half-maximal velocity) turned out to be 3.2 ± 0.5 µM.
“(+)-δ-cadinene synthase (DCS, isozyme XC1) (Gossypium arboreum; D308A)”: the Km in data set [2] was found to be 43 ± 16 µM.
Still for that read-out and setting: for “(+)-δ-cadinene synthase (DCS, isozyme XC1) (Gossypium arboreum; D451A)” the value was 2.4 ± 0.3 µM; for “(+)-δ-cadinene synthase (DCS, isozyme XC1) (Gossypium arboreum; D452A)”, 3.1 ± 1.2 µM.
